Experimental findings from patent US10280218B2, “Antibodies binding to BMP4, and uses thereof” (ACADEMISCH MEDISCH CENTRUM, priority 2014, dated 2019) are described below.

The target of assay [1] is T1, BMP2 (Homo sapiens, UniProt P12643).
T1 sequence (P12643 283-396): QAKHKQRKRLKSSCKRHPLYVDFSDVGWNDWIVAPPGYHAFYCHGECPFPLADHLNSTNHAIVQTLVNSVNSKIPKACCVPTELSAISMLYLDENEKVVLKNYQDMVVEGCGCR
Kind of assay: Surface plasmon resonance (SPR), BMPs injected over VHH-coated chip. As to conditions: molecule coupled to chip, —: No binding detected. The procedure: In a first set of experiments, controls and VHHs (either as monomers or dimers) were coupled to SPR chips and the measurement of BMP affinities was obtained by injecting the different BMPs to the plate.
(§1) Serial dilutions (2.0-10 μg/ml) of purified VHHs were spotted on an amine-specific SensEye gold-film gel-type SPRchip (Ssens), using a Continuous Flow Microspotter (Wasatch Microfluidics, Salt Lake City, Utah, United States) as described (Lokate et al., 2007). BMP binding was analyzed on an IBIS MX96 (IBIS Technologies, Enschede, The Netherlands) instrument by performing injections with dilution series (0.05-2.0 μg/ml) of recombinant BMPs on the VHH-coated chip. In each injection, BMPs were injected and incubated for 8 min, followed by 15 min thorough washing with binding buffer (PBS+0.05% Tween20+0.05% sodium azide) to measure dissociation. Epitope binning was done by injecting VHH dilutions (2.0 μg/ml) over the chip, immediately after the dissociation step. Injections with blank binding buffer were used as reference. After each concatenated injection, the chip was regenerated with 10 mM glycine-HCl, pH 2.0. Experimental data were processed with SPRintX software (IBIS Technologies) and kinetic parameters were determined using Scrubber2 software (BioLogic Software, Campbell, ACT, Australia). Binding constants were obtained by global fitting to a one-site binding model.
Background: Surface plasmon resonance follows binding to a sensor surface in real time, without labels.

The target of a further assay is T2, BMP6 (Homo sapiens, UniProt P22004).
T2 sequence (P22004 375-513): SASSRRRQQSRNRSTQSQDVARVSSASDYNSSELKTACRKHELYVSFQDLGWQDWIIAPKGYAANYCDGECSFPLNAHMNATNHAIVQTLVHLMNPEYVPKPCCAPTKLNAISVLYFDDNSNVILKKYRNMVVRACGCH
Described as above. As to conditions: molecule coupled to chip; unit inferred; — not defined there (Table 1: No binding detected). As for the experimental part: (§2) To confirm their BMP specificities and to elucidate their binding affinities, our VHHs were subjected to surface plasmon resonance (SPR) analysis. In a first set of experiments, controls and VHHs (either as monomers or dimers) were coupled to SPR chips and the measurement of BMP affinities was obtained by injecting the different BMPs to the plate.
as §1

For another assay, the target named is T3, BMP5 (Homo sapiens, UniProt P22003).
T3 sequence (P22003 317-454): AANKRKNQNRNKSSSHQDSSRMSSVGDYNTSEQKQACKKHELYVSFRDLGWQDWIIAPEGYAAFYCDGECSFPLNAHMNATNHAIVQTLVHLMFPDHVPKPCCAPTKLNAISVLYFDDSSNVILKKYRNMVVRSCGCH
The assay is described as above. The format is binding. To be noted: molecule coupled to chip; unit inferred. As for the experimental part: as §2, §1

For a further assay, the target named is T4, BMP7 (Homo sapiens, UniProt P18075).
T4 sequence (P18075 293-431): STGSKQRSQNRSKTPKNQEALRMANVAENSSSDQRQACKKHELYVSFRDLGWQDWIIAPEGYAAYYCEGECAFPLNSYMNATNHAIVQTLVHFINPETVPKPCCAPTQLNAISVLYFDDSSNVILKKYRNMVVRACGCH
The assay is described as above. The format is binding. As to conditions: molecule coupled to chip; unit inferred; — not defined there (Table 1: No binding detected). The procedure: as §2, §1

Assay [2] addresses T5, BMP4 (Homo sapiens, UniProt P12644).
T5 sequence (P12644 293-408): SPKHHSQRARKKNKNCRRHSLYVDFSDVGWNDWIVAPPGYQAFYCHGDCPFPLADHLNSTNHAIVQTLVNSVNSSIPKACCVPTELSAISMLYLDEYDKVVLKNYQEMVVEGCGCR
The description is as above. The format is binding. Details: purchased R&D systems. To be noted: molecule coupled to chip. The procedure: as §2, §1

Assay [3] has as its target T6, BMP2 (human).
T6 chain: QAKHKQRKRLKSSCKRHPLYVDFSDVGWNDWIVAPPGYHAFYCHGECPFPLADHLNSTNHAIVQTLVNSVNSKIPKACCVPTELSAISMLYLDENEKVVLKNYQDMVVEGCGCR
In words: SPR.

For assay [4], the target named is T7, BMP4 (human).
T7 chain: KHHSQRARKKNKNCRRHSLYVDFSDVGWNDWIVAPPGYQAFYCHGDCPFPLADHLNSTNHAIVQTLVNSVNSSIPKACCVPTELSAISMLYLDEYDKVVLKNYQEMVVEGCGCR
Kind of assay: SPR.

Assay [5] concerns the target T1, BMP2. Kind of assay: BMP activity luciferase reporter assay (BRE-luciferase, ID1 promoter) in C2C12 cells. The format is cell-based, mouse. To be noted: BMP2 50 ng/ml, 16 hours; 5 μg/ml. As for the experimental part:
One of the most studied BMP target genes is the Inhibitor of Differentiation 1 (ID1). This is an immediate early gene that is activated by binding of the phosphorylated SMADs to its promoter region (López-Rovira et al., 2002). Thus, we employed the BMP-responsive C2C12 cells, which are stably transfected with the BRE-luciferase vector containing the BMP-Responsive-Element (the mouse ID1 promoter) cloned into the pGL3 luciferase vector (Zilberberg 2007). […] C2C12 cells were treated with the different BMPs with or without our VHHs or human Noggin at a concentration of 5 μg/ml. Luciferase activity was measured after 16 hours incubation. Most of the transcriptional data is in concordance with the results obtained with the phosphorylation of SMAD1/5/8.
C2C12 cells were plated in 96-well plates at 5×10^3 cells/well and cells were allowed to attach overnight. 100 μl of DMEM with 0.1% BSA were added in each well. VHH antibodies and human Fc-Noggin at the indicated concentrations were added at the same time. Wells with unstimulated cells were added as controls. Cells were treated in triplicate with the BMPs at the indicated concentrations for 16 hours. Luciferase activity was measured by adding 100 μl of luciferase substrate solution from the Bright-Glo™ Luciferase Assay System (Promega Benelux, Leiden, The Netherlands). After 3 minutes of incubation, luciferase activity was measured with Synergy HT Multi-Mode Microplate Reader (Biotek, Winooski, Vt., United States). Luciferase values were normalized to background activity (activity of wells with no cells) and represented as ratio to the activity of BMP-stimulated cells.
To evaluate the extent of this increase in potency, the IC50 of the different VHHs were determined in a dose-dependent inhibition assay in C2C12 cells (FIG. 25). C2C12 cells were plated in 96-well plates at 5×10^3 cells/well and cells were allowed to attach overnight 100 μl of DMEM with 0.1% BSA were added in each well. VHH antibodies were added at the indicated concentrations at the same time as 5 ng/ml BMP4 (FIG. 25A-B, D) or 50 ng/ml of BMP2 (FIG. 25C,D). Luciferase activity was measured after 16 hours. Values are represented as ratio to the activity of BMP-stimulated cells. […] However, its effects were more striking for BMP2 rather than BMP4 inhibition. […] The IC50 values for BMP4 inhibition observed in our VHHs are considerably lower than those observed for anti-BMP4 commercially available from R&D (Katagiri et al 1994) and those described in WO_2008/030611.
C2C12 cells were cultured in 96-well plates at 5×10^3 cells/well. After overnight attachment cells were stimulated with 10 ng/ml hBMP4 (Cat No. 314-BP-020; R&D Systems), 50 ng/ml hBMP2 (Cat No. 355-BM-010; R&D Systems), 200 ng/ml hBMP5 (Cat No. 615-BMC-020; R&D Systems), 50 ng/ml hBMP6 (Cat No. 506-BP-020; R&D Systems), 200 ng/ml hBMP7 (Cat No. 354-BP-010; R&D Systems), 25 ng/ml hBMP9 (Cat No. 3209-BP-010; R&D Systems), 25 ng/ml hBMP10 (Cat No. 2926-BP-025; R&D Systems), 50 ng/ml hBMP12 (Cat No. 779-G7-010; R&D Systems) and with or without VHH antibodies: C4C4 and C8C8 at 500 ng/ml; natural antagonist: mNoggin (Cat No. 1967-NG-025; R&D Systems), hNoggin (Cat No. 6057-NG; R&D Systems) and mGremlin (cat#956-GR-050; R&D Systems) at 500 ng/ml; chemical antagonist: 0.5 μM LDN-193189 (Cat No. 11802; Cayman Chemical) and 0.2 μM DMH1 (Cat No. 57146; Selleckchem).
VHH efficacy was evaluated by stimulating cells with 10 ng/ml of hBMP4 and 50 ng/ml of hBMP2, with and without increase concentrations (from 0.1-10 μg/ml) of VHH and anti-BMP4 antibodies: clone 66119, clone 3H2, clone M912262, clone PA354-16.1.1, Clone EPR6211, and anti-BMP4 (ab39973). […] Unstimulated cells were used as controls and wells with no cells used to normalize the background activity. […]
For orientation: A reporter such as luciferase makes a cellular process visible.

On to “BMPR1a: type I BMP receptor used as control in SPR [reference compound]”, for which, in the assay with BMP2 [1], the “kd (BMP2)” value is given as 14.0 10^−5 sec^−1. Moreover, the Kd (commonly the free concentration of one partner at which half of the binding sites on the other are occupied at equilibrium, for simple one-to-one binding) in the assay with BMP6 is 24 nM; with BMP5 it was 60 nM; with BMP7, 131 nM. Besides, the “kd (BMP4)” value with BMP4 [2] was 9.2 10^−5 sec^−1.

B1: E7 (antibody, V domains shown)
VH: EVQLVESGGGLVQAGGSLRLSCAASGSIRGFVAMAWYRQAPGKQREWVATVTNGGTLYGDSVKGRFTGSRDNAKNTVYLQMNSLKPEDTAVYYCALRQIGASGYDYWGQGTQVTVSS
With B1, the Kd with BMP2 [3] was 1.07 nM; with BMP4 [4], 0.512 nM.

B2: BMPR1a (protein)
chain: QNLDSMLHGTGMKSDSDQKKSENGVTLAPEDTLPFLKCYCSGHCPDDAINNTCITNGHCFAIIEEDDQGETTLASGCMKYEGSDFQCKDSPKAQLRRTIECCRTNLCNQYLQPTLPPVVIGPFFDGSIR
Take B2: in the assay with BMP4 [4], the Kd came out at 0.635 nM.

B3: C8-C8 (antibody, V domains shown)
V domain 1: EVQLVESGGGLVQAGGSLRLSCAASGRTFRINDMGWYRQAPGKSRDMVARITSGGNTNYADSVKGRFTISRDNAKNTVYLQMNSLKPEDTAVYYCNADGLRFDSTRYRPFDSWGQGTQVTVSS
V domain 2: EVQLVESGGGLVQAGGSLRLSCAASGRTFRINDMGWYRQAPGKSRDMVARITSGGNTNYADSVKGRFTISRDNAKNTVYLQMNSLKPEDTAVYYCNADGLRFDSTRYRPFDSWGQGTQVTVSS
On to B3, for which the Kd amounted to 0.0628 nM in the assay with BMP2 [3] and 0.031 nM in the assay with BMP4 [4].

B4: C8 (antibody, V domains shown)
VH: EVQLVESGGGLVQAGGSLRLSCAASGRTFRINDMGWYRQAPGKSRDMVARITSGGNTNYADSVKGRFTISRDNAKNTVYLQMNSLKPEDTAVYYCNADGLRFDSTRYRPFDSWGQGTQVTVSS
In the case of B4, the Kd with BMP2 [3] is 0.88 nM; in the assay with BMP4 [4], 0.392 nM.

B5: C8-E7 (antibody, V domains shown)
V domain 1: EVQLVESGGGLVQAGGSLRLSCAASGRTFRINDMGWYRQAPGKSRDMVARITSGGNTNYADSVKGRFTISRDNAKNTVYLQMNSLKPEDTAVYYCNADGLRFDSTRYRPFDSWGQGTQVTVSS
V domain 2: EVQLVESGGGLVQAGGSLRLSCAASGSIRGFVAMAWYRQAPGKQREWVATVTNGGTLYGDSVKGRFTGSRDNAKNTVYLQMNSLKPEDTAVYYCALRQIGASGYDYWGQGTQVTVSS
For B5, the Kd with BMP2 [3] is 0.554 nM; in the assay with BMP4 [4], 0.099 nM.

B6: C4-C4 (antibody, V domains shown)
V domain 1: EVQLVESGGGLVQAGGSLRLSCAASGRTFSTYAMGWFRQAPGKEREFVAAISKGGGITYYSDSVRGRFTISKENAKNTVYLQMNSLKPEDTAVYYCAADPVSSVAKSPVAYPYWGQGTQVTVSS
V domain 2: EVQLVESGGGLVQAGGSLRLSCAASGRTFSTYAMGWFRQAPGKEREFVAAISKGGGITYYSDSVRGRFTISKENAKNTVYLQMNSLKPEDTAVYYCAADPVSSVAKSPVAYPYWGQGTQVTVSS
Take B6: the Kd in the assay with BMP2 [3] was 2.15 nM; with BMP4 [4], 0.0097 nM.

B7: D99A of C4: mutational variant of VHH C4, single substitution D99A (protein)
VHH: EVQLVESGGGLVQAGGSLRLSCAASGRTFSTYAMGWFRQAPGKEREFVAAISKGGGITYYSDSVRGRFTISKENAKNTVYLQMNSLKPEDTAVYYCAAAPVSSVAKSPVAYPYWGQGTQVTVSS
Regarding B7, in the assay with BMP2 [5], the “inhibition of BMP2-mediated transcriptional activation” value is on record as “C4 nor its D99A mutant, had any effect”.
